The record followed here is IntAct's records for PubMed 12730685.

This assay deals with mgn_human MAGOH (UniProt P61326).

“RNA-binding protein 8A (Homo sapiens) (from UniProt Q9Y5S9) L118R”: the “effect of a mutation on the interaction” value is recorded as “decreasing interaction”.
